For the data set the following is noted: Escherichia coli (strain K12), CD, reversible: yes, whole UniProt chain shown; for Tm: Thermal; for denaturant midpoint (higher = more stable) / unfolding free energy: 25 °C, GdnHCl.

B1: Ribonuclease HI wild type, P0A7Y4 (protein)
chain: MLKQVEIFTDGSCLGNPGPGGYGAILRYRGREKTFSAGYTRTTNNRMELMAAIVALEALKEHCEVILSTDSQYVRQGITQWIHNWKKRGWKTADKKPVKNVDLWQRLDAALGQHQIKWEWVKGHAGHPENERCDELARAAAMNPTLEDTGYQVEV
Broadly, the Tm is the temperature at the midpoint of the melting transition. Take B1: the Tm (pH 3, glycine-HCl 10 mM) turned out to be 49.4 °C; the Tm (pH 5.5, Sodium acetate 20 mM) is 52.7 °C; the Tm (pH 7.8, Sodium phosphate 20 mM) is 50.2 °C. Moreover, the “denaturant midpoint (higher = more stable)” value reads like this: (pH 5.5, Sodium acetate 20 mM) 1.79 M; (pH 8.2, Tris-HCl 20 mM) 1.65 M. Further, the unfolding free energy amounted to 9.21 kcal/mol (pH 5.5, Sodium acetate 20 mM) and 8.49 kcal/mol (pH 8.2, Tris-HCl 20 mM).

(Values after FireProtDB (doi:10.1016/0168-1656(93)90129-b).)
